According to patent publication US20240270865A1 (INNATE PHARMA, published 2024):

T1: recombinant human soluble CD73 protein (cloned huCD73 with C-terminal 6xHis tag) (human, UniProt P21589 27-547)
T1 construct: also called recombinant CD73 protein; CD73 recombinant protein
T1 sequence: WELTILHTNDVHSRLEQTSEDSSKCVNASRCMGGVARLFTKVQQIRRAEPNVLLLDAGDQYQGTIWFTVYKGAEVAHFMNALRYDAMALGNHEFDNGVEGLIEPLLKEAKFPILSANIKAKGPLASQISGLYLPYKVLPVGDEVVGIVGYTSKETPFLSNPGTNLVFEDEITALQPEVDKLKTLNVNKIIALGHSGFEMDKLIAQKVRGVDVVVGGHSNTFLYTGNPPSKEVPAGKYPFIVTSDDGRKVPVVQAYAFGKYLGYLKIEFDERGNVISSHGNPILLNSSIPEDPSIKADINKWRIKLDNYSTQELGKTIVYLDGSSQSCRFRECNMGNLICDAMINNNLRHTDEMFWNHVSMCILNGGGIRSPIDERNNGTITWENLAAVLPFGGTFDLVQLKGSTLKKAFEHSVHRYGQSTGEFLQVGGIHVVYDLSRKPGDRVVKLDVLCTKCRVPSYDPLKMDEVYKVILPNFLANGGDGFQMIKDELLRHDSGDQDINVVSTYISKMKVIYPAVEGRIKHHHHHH


Molecular target: T1, recombinant human soluble CD73 protein …
Test: SPR, recombinant CD73 protein
Experimental: SPR measurements were performed on a Biacore™ T200 apparatus at 25° C. Protein-A (GE Healthcare) was immobilized on a Sensor Chip CM5 (GE Healthcare). […] The entire sensorgram sets were fitted using the 1:1 kinetic binding model. Bivalent affinities and kinetic association and dissociation rate constants are calculated.

| Binder | binding result |
| --- | --- |
| H2L2 (antibody, human IgG1, V domains shown, also called H2 variant) VH: QIQLVQSGAEVKKPGASVKVSCKASGYAFTSYNMYWVRQAPGQSLEWMGYIDPYNGGSSYNLTFKGRVTITVDKSASTAYMELSSLRSEDTAVYYCARGYGNYKAWFAYWGQGTLVTVSS VL: DIQMTQSPSSLSASVGDRVTITCKASQSVSNDVAWYQQKPGKAPKLLIYYASTRYTGVPDRFSGSGYGTDFTFTISSLQPEDIATYYCQQDYSSLTFGQGTKLEIK | binds |
| H1L2 (antibody, human IgG1, V domains shown, also called H1 variant) VH: QIQLVQSGAEVKKPGASVKVSCKASGYTFTSYNMYWVRQAPGQRLEWMGYIDPYNGGSSYNLTFKGRVTITRDKSASTAYMELSSLRSEDTAVYYCARGYGNYKAWFAYWGQGTLVTVSS VL: DIQMTQSPSSLSASVGDRVTITCKASQSVSNDVAWYQQKPGKAPKLLIYYASTRYTGVPDRFSGSGYGTDFTFTISSLQPEDIATYYCQQDYSSLTFGQGTKLEIK | binds |
| H3L2 (antibody, human IgG1, V domains shown, also called H3 variant) VH: QIQLVQSGAEVKKPGASVKVSCKASGYAFTSYNMYWVRQAPGQSLEWIGYIDPYNGGSSYNLTFKGKATITVDKSASTAYMELSSLRSEDTAVYYCARGYGNYKAWFAYWGQGTLVTVSS VL: DIQMTQSPSSLSASVGDRVTITCKASQSVSNDVAWYQQKPGKAPKLLIYYASTRYTGVPDRFSGSGYGTDFTFTISSLQPEDIATYYCQQDYSSLTFGQGTKLEIK | binds |
| H3L4 (antibody, human IgG1, V domains shown, also called H3 variant) VH: QIQLVQSGAEVKKPGASVKVSCKASGYAFTSYNMYWVRQAPGQSLEWIGYIDPYNGGSSYNLTFKGKATITVDKSASTAYMELSSLRSEDTAVYYCARGYGNYKAWFAYWGQGTLVTVSS VL: DVQMTQSPSSLSASVGDRVTITCKASQSVSNDVAWYQQKPGKAPKLLIYYASTRYTGVPDRFSGSGYGTDFTFTISSLQPEDIATYFCQQDYSSLTFGQGTKLEIK | binds |
| H3L1 (antibody, human IgG1, V domains shown, also called H3 variant) VH: QIQLVQSGAEVKKPGASVKVSCKASGYAFTSYNMYWVRQAPGQSLEWIGYIDPYNGGSSYNLTFKGKATITVDKSASTAYMELSSLRSEDTAVYYCARGYGNYKAWFAYWGQGTLVTVSS VL: DIQMTQSPSSLSASVGDRVTITCKASQSVSNDVAWYQQKPGKAPKLLIYYASTRYTGVPSRFSGSGYGTDFTFTISSLQPEDIATYYCQQDYSSLTFGQGTKLEIK | binds |
| H4L3 (antibody, human IgG1, V domains shown, also called H4 variant) VH: QIQLVQSGAEVKKPGASVKVSCKASGYAFASYNMYWVRQAPGQSLEWIGYIDPYNGGSSYNLTFKGKATLTVDKSASTAYMELSSLRSEDTAVYYCARGYGNYKAWFAYWGQGTLVTVSS VL: DVQMTQSPSSLSASVGDRVTITCKASQSVSNDVAWYQQKPGKAPKLLIYYASTRYTGVPDRFSGSGYGTDFTFTISSLQPEDIATYYCQQDYSSLTFGQGTKLEIK | binds |
| H2L4 (antibody, human IgG1, V domains shown, also called H2 variant) VH: QIQLVQSGAEVKKPGASVKVSCKASGYAFTSYNMYWVRQAPGQSLEWMGYIDPYNGGSSYNLTFKGRVTITVDKSASTAYMELSSLRSEDTAVYYCARGYGNYKAWFAYWGQGTLVTVSS VL: DVQMTQSPSSLSASVGDRVTITCKASQSVSNDVAWYQQKPGKAPKLLIYYASTRYTGVPDRFSGSGYGTDFTFTISSLQPEDIATYFCQQDYSSLTFGQGTKLEIK | binds |
| H1L4 (antibody, human IgG1, V domains shown, also called H1 variant) VH: QIQLVQSGAEVKKPGASVKVSCKASGYTFTSYNMYWVRQAPGQRLEWMGYIDPYNGGSSYNLTFKGRVTITRDKSASTAYMELSSLRSEDTAVYYCARGYGNYKAWFAYWGQGTLVTVSS VL: DVQMTQSPSSLSASVGDRVTITCKASQSVSNDVAWYQQKPGKAPKLLIYYASTRYTGVPDRFSGSGYGTDFTFTISSLQPEDIATYFCQQDYSSLTFGQGTKLEIK | binds |
| H1L3 (antibody, human IgG1, V domains shown, also called H1 variant) VH: QIQLVQSGAEVKKPGASVKVSCKASGYTFTSYNMYWVRQAPGQRLEWMGYIDPYNGGSSYNLTFKGRVTITRDKSASTAYMELSSLRSEDTAVYYCARGYGNYKAWFAYWGQGTLVTVSS VL: DVQMTQSPSSLSASVGDRVTITCKASQSVSNDVAWYQQKPGKAPKLLIYYASTRYTGVPDRFSGSGYGTDFTFTISSLQPEDIATYYCQQDYSSLTFGQGTKLEIK | binds |
| H2L3 (antibody, human IgG1, V domains shown, also called H2 variant) VH: QIQLVQSGAEVKKPGASVKVSCKASGYAFTSYNMYWVRQAPGQSLEWMGYIDPYNGGSSYNLTFKGRVTITVDKSASTAYMELSSLRSEDTAVYYCARGYGNYKAWFAYWGQGTLVTVSS VL: DVQMTQSPSSLSASVGDRVTITCKASQSVSNDVAWYQQKPGKAPKLLIYYASTRYTGVPDRFSGSGYGTDFTFTISSLQPEDIATYYCQQDYSSLTFGQGTKLEIK | binds |
| H3L3 (antibody, human IgG1, V domains shown, also called H3 variant) VH: QIQLVQSGAEVKKPGASVKVSCKASGYAFTSYNMYWVRQAPGQSLEWIGYIDPYNGGSSYNLTFKGKATITVDKSASTAYMELSSLRSEDTAVYYCARGYGNYKAWFAYWGQGTLVTVSS VL: DVQMTQSPSSLSASVGDRVTITCKASQSVSNDVAWYQQKPGKAPKLLIYYASTRYTGVPDRFSGSGYGTDFTFTISSLQPEDIATYYCQQDYSSLTFGQGTKLEIK | binds |
| H4L2 (antibody, human IgG1, V domains shown, also called H4 variant) VH: QIQLVQSGAEVKKPGASVKVSCKASGYAFASYNMYWVRQAPGQSLEWIGYIDPYNGGSSYNLTFKGKATLTVDKSASTAYMELSSLRSEDTAVYYCARGYGNYKAWFAYWGQGTLVTVSS VL: DIQMTQSPSSLSASVGDRVTITCKASQSVSNDVAWYQQKPGKAPKLLIYYASTRYTGVPDRFSGSGYGTDFTFTISSLQPEDIATYYCQQDYSSLTFGQGTKLEIK | binds |
| H4L4 (antibody, human IgG1, V domains shown, also called H4 variant) VH: QIQLVQSGAEVKKPGASVKVSCKASGYAFASYNMYWVRQAPGQSLEWIGYIDPYNGGSSYNLTFKGKATLTVDKSASTAYMELSSLRSEDTAVYYCARGYGNYKAWFAYWGQGTLVTVSS VL: DVQMTQSPSSLSASVGDRVTITCKASQSVSNDVAWYQQKPGKAPKLLIYYASTRYTGVPDRFSGSGYGTDFTFTISSLQPEDIATYFCQQDYSSLTFGQGTKLEIK | binds |
| H1L1 (antibody, human IgG1, V domains shown, also called H1 variant) VH: QIQLVQSGAEVKKPGASVKVSCKASGYTFTSYNMYWVRQAPGQRLEWMGYIDPYNGGSSYNLTFKGRVTITRDKSASTAYMELSSLRSEDTAVYYCARGYGNYKAWFAYWGQGTLVTVSS VL: DIQMTQSPSSLSASVGDRVTITCKASQSVSNDVAWYQQKPGKAPKLLIYYASTRYTGVPSRFSGSGYGTDFTFTISSLQPEDIATYYCQQDYSSLTFGQGTKLEIK | binds |
| H4L1 (antibody, human IgG1, V domains shown, also called H4 variant) VH: QIQLVQSGAEVKKPGASVKVSCKASGYAFASYNMYWVRQAPGQSLEWIGYIDPYNGGSSYNLTFKGKATLTVDKSASTAYMELSSLRSEDTAVYYCARGYGNYKAWFAYWGQGTLVTVSS VL: DIQMTQSPSSLSASVGDRVTITCKASQSVSNDVAWYQQKPGKAPKLLIYYASTRYTGVPSRFSGSGYGTDFTFTISSLQPEDIATYYCQQDYSSLTFGQGTKLEIK | binds |
| H2L1 (antibody, human IgG1, V domains shown, also called H2 variant) VH: QIQLVQSGAEVKKPGASVKVSCKASGYAFTSYNMYWVRQAPGQSLEWMGYIDPYNGGSSYNLTFKGRVTITVDKSASTAYMELSSLRSEDTAVYYCARGYGNYKAWFAYWGQGTLVTVSS VL: DIQMTQSPSSLSASVGDRVTITCKASQSVSNDVAWYQQKPGKAPKLLIYYASTRYTGVPSRFSGSGYGTDFTFTISSLQPEDIATYYCQQDYSSLTFGQGTKLEIK | binds |
